Usually Kd stands for the free concentration of one partner at which half of the binding sites on the other are occupied at equilibrium, for simple one-to-one binding. A lower Kd goes with tighter binding. One may read the IC50 as the concentration that gives 50% inhibition. In general, EC50 refers to the midpoint of the concentration-response curve.

The source of these data is US11780907B2, “Human antibodies to influenza hemagglutinin” (Regeneron Pharmaceuticals, Inc., priority 2018, dated 2023).

Positions count from the first letter of the chain named. “Also recorded” adds a separate entry of the source. Read-outs that look alike come from different tables or passages of the source.

Test [1] concerns A/Aichi/02/1968-X31 (H3N2). Details: species or system BALB/c mice. The settings on record: mouse, in vivo.
In another test the test system is group 1 strains (HA). It is filed as binding, influenza A virus.
Test [2] has as its target A/Shanghai/01/2013 (H7) HA foldon protein. It is filed as binding, influenza A virus. The settings on record: 37° C.
The target in test [3] is A/Hiroshima/52/2005 (H3) HA foldon protein. It is filed as binding, influenza A virus.
Test [4] relates to A/Victoria/316/2011 (H3N2). Format: cell-based, influenza A virus.
Test [5] has as its system A/Aichi/02/1968-PR8-X31(H3N2)-infected MDCKs. Format: cell-based, canine.
Test [6] concerns A/Aichi/02/1968-X31 (H3N2). On the set-up: species or system BALB/c mice. The following applies: mouse, in vivo, iv, 15 mg/kg.
The test system of test [7] is A/Aichi/02/1968-PR8-X31 (H3N2). Format: cell-based, influenza A virus. The settings on record: read-out: Neutralization activity IC50.
In test [8] the test system is A/Philippines/01/1982 (H3N2). It is filed as cell-based, influenza A virus. The settings on record: read-out: Neutralization activity IC50.
Test [9] deals with A/Shanghai/01/2013-PR8 (H7N9). It is filed as cell-based, influenza A virus. The settings on record: read-out: Neutralization activity IC50.

As for `CCOC(=O)C1=C[C@@H](OC(CC)CC)[C@H](NC(C)=O)[C@@H](N)C1` [oseltamivir, reference compound], the survival in test [1] was determined as 80%.

B1: H1H14611N2: fully human anti-influenza A group 2 HA monoclonal antibody, HCVR/LCVR SEQ ID NOs: 2/10 (antibody, V domains shown)
VH: EVQLVESGGGLVKPGGSLRLSCAASGFTFSGFSMNWVRQVPGKGLEWVSSISTSGNYMYYADSVKGRFTISRDNAKKSFSLQMNSLRAEDSAIYYCARGGGYNWNLFDYWGQGSLVTVSS
VL: EIVLTQSPGTLSLSPGERATLSCRASQSLNSNYLAWYQQKPGQAPRLLIYGASSRATGIPDRFSGSGSGTDFTLTITRLESEDFAVYYCQQYGNSPLTFGGGTKVEIK
Regarding B1, in the test on group 1 strains (HA), the “binding to group 1 strains” value was “did not bind”. Also, in [1], the “effect when dosed in combination with oseltamivir” value is recorded as “additive protective effect; also recorded: additive efficacy”. Besides, the survival in [1] (7 mg/kg) is 80%; in test [1] (15 mg/kg), 100%; in [6], “One hundred percent survival; also recorded: survived; also recorded: complete protection”. Besides, the KD result in test [2] is “IC^§”. Moreover, the Kd in [3] was 8.22 nM. In addition, the “lowest concentration of mAb where no RBC hemagglutination was detected” value in [4] was 41.7 nM. Besides, the “maximum lysis (percent specific lysis)” value in [5] is reported as 78.3%.

B2: H1H14612N2: fully human anti-influenza A group 2 HA monoclonal antibody, HCVR/LCVR SEQ ID NOs: 18/26 (antibody, V domains shown)
VH: B1 VH with T28S, V40A
VL: B1 VL with T70A, T77S
As for B2, the IC50 in test [7] was 5.7 nM; in test [8] it was 37.6 nM; in test [9], over 6670 nM. In addition, the “lowest concentration of mAb where no RBC hemagglutination was detected” value in test [4] is listed as 166.7 nM. For the same molecule, the “maximum lysis (percent specific lysis)” value in [5] amounted to 86.3%. Further, the EC50 in [5] (read-out: CDC EC50) stood at 126 nM. The survival result in test [6] was “One hundred percent survival; also recorded: survived; also recorded: complete protection”.
